According to the Human Domainome abundance scans (Beltran et al. 2025):

B1: RUN and FYVE domain-containing protein 1, residues 639 to 698; numbered along this chain, Q96T51 (parent)
chain: WLKDDEATHCRQCEKEFSISRRKHHCRNCGHIFCNTCSSNELALPSYPKPVRVCDSCHTL

Variants of: B1
Assay: abundance fitness (aPCA) (normalised: wild type 0, dead -1); higher = more abundant; growth selection in yeast, the domain comes from the species named
Conditions: Homo sapiens

Abundance fitness of substitutions, site by site:
H31: C -0.445; I -0.113; Q -0.019; T -0.423; P -0.711; V -0.626; K -0.143; G 0.08; R -0.142; Y -0.106; W -0.017; D -0.126; M -0.113; F 0.027; N -0.237; A -0.204; E -0.277; L -0.012; S -0.225
S46: K 0.181; D 0.365; L 0.151; F -0.01; C -0.133; G 0.243; M 0.086; A 0.16; E 0.402; H -0.004
F33: N -0.488; W -0.455; V 0.076; C 0.059; P -0.888; E -0.576; T -0.238; K -0.602; M -0.378; I -0.171; Y 0.005; R -0.6; Q -0.38; G -0.537; H -0.458; D -0.573; S -0.47
C34: H -0.44; F -0.853; V -0.496; S -0.758; G -0.608; W -0.736; M -0.398; L -0.708; P -0.633; A -0.659; K -0.493; R -0.642; Y -0.682; D -0.577; Q -0.542; T -0.612; N -0.709; I -0.71
N40: H -0.067; P -0.387; Q -0.001; R 0.153; D -0.382; L -0.424; K 0.078; W -0.85; E -0.172; S -0.004; T -0.08; A -0.163; C -0.933; I -0.223; G -0.03; Y -0.906; M -0.021
N28: Y -0.283; W -0.13; L -0.342; G -0.1; C 0.058; A -0.046; T -0.306; S -0.099; F -0.177; P -0.244; M -0.252; R -0.176; H 0.05; D -0.19; Q -0.147; I -0.261; V -0.285; K -0.202
S38: A 0.124; R -0.122; V -0.008; C -0.029; I -0.38; E -0.954; G -0.067; Q -0.432; D -0.665; M -0.425; T -0.057; K -0.589; P -0.727; Y -0.633; H -0.545; W -0.282; F -0.594
T36: A 0.349; P 0.202; F 0.208; S 0.214; V 0.342; G 0.444; I 0.083; Y 0.177; Q 0.403; H 0.287; D 0.401; W 0.168; R 0.351; N 0.276; L 0.3; K 0.254
P45: N 0.017; L -0.19; S 0.027; C -0.325; T 0.047; Y -0.425; M -0.073; A -0.277; R 0.009; V -0.13; D -0.035; Q 0.162; H -0.022; K 0.091; I -0.162; G -0.204; E -0.081
R27: H 0.316; S -0.003; N 0; L 0.069; M 0.019; C -0.067; F 0.176; P 0.219; V -0.262; T 0.095; E 0.085; I -0.077; G 0.153; K 0.04; D 0.072; Q 0.112; W -0.144
L42: Y -0.151; N -0.317; C 0.045; S 0.096; Q 0.295; V 0.092; T -0.071; F 0.034; A 0.11; W -0.014; R 0.227; I 0.214; P -0.606; G -0.026; D 0.184; M -0.046; H 0.118
C29: F -0.871; D -0.709; G -1; L -0.875; W -1.03; E -0.666; S -1.01; H -1.25; T -0.818; Q -1.23; V -0.904; P -0.835; N -0.942; A -1.03; I -1.11; K -1.11; Y -0.852; M -0.906
I32: E 0.074; Q 0.045; M 0.161; F 0.042; P 0.109; D -0.079; G 0.195; H -0.24; N -0.05; K 0.134; V 0.04; A -0.1; C -0.105; L -0.056; T 0.007; S 0.013
C37: N -0.282; P -0.537; H -0.325; A -0.326; K -0.658; R -0.553; L -0.719; Q -0.557; S -0.568; F -0.649; Y -0.615; G -0.471; M -0.567; I -0.825; T -0.627
S39: R -0.011; A 0.14; N -0.036; L -0.102; G 0.185; F -0.305; I -0.229; P -0.251; D 0.128; E 0.079; Q 0.091; W -0.657; Y -0.428; H -0.421; T 0.084; C -1.14
G30: H -0.428; M -0.264; N -1.04; V -0.764; Q -0.326; C -0.453; Y -0.56; A -0.392; K -1.17; F -0.945; D -0.414; R -0.428; P -0.754; S -0.503; E -0.239; T -0.77; W -0.235
N35: D 0.324; G 0.436; Q 0.173; V 0.255; S 0.23; A 0.341; K 0.183; W 0.088; M 0.191; I 0.047; L 0.215; E 0.331; H 0.178; T 0.22; F -0.064; P 0.233; C 0.237; R 0.172
E41: C -0.11; H -0.195; S -0.155; M -0.134; Y -0.126; L -0.18; T -0.11; K -0.038; Q -0.056; N -0.184; V -0.063; A -0.182; D -0.173; G -0.522; R -0.151; P -0.418; W -0.384; I -0.335
A43: W -0.405; C -0.128; Q -0.008; M 0.021; P 0.001; V 0.008; L 0.058; Y -0.366; R -0.054; T -0.045; I 0.019; K -0.071; S -0.188; N 0.034; G -0.124
L44: Y -0.271; N -0.388; C -0.389; K -0.384; H -0.295; E -0.376; P -0.326; T -0.127; A -0.3; V -0.236; M -0.077; R -0.445; D 0.138; S -0.454; G -0.166; F -0.196; Q -0.3; W -0.375
